The record followed here is US20090098148A1.

The target of this assay is epidermal growth factor receptor (EGFR) on A431 human epidermoid cells (human) (UniProt P00533). Kind of assay: cell-based or functional assay.

Bounds are passed on as bounds.

As for “streptavidin-TGF-α fusion protein (ST-TGF) (from UniProt P22629 40-157; P01135 40-89)”, the mean fluorescence activity (biotin-β-galactosidase delivered into each A431 cell, FACS) turned out to be 214; the positive cells (delivery of biotin-β-galactosidase into A431 cells, staining and FACS) is over 99%.
